In general, Kd refers to the equilibrium constant for the complex coming apart. Read a high Kd as a looser complex.

Residue numbers refer to the chain shown, from its start.

For five molecules, Kd results are on record in US20220175942A1 (published 2022).

The labels stand for the following.
T1: CCL22_HUMAN (human, UniProt O00626 25-93)
T1 chain: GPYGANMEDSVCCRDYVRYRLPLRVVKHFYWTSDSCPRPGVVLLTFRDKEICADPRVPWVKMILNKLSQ

T2: CCL1_HUMAN (human, UniProt P22362 24-96)
T2 chain: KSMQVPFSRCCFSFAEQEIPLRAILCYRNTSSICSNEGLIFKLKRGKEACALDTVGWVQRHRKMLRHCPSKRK

T3: CCL5_HUMAN (human, UniProt P13501 24-91)
T3 chain: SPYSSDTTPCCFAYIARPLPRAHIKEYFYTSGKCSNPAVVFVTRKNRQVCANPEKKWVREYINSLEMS

T4: CCL3_HUMAN (human, UniProt P10147 24-92)
T4 chain: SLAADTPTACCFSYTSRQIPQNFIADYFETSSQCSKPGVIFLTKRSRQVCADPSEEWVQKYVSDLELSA

T5: CCL8_HUMAN (human, UniProt P80075 24-99)
T5 chain: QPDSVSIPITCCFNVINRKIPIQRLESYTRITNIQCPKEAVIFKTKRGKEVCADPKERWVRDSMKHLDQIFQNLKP

T6: CCL18_HUMAN (human, UniProt P55774 21-89)
T6 chain: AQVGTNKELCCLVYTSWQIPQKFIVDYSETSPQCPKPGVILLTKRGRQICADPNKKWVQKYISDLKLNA

T7: CCL4 (human, UniProt P13236 24-92)
T7 chain: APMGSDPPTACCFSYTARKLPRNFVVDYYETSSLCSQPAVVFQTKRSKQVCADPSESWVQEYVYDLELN

T8: CCL17_HUMAN (human, UniProt Q92583 24-94)
T8 chain: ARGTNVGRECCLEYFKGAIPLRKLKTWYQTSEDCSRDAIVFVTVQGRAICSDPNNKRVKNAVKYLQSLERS

B1: P546_AMBCA (other)
chain: ENTQQEEEDYDYGTDTCPFPVLANKTNKAKFVGCHQKCNGGDQKLTDGTACYVVERKVWDRMTPMLWYSCPLGECKNGVCEDLRKKEECRKGNGEEK
B2: P974_AMBCA (other)
chain: B1 chain with E8Q, S69E, E88D
B3: P467_RHIPU (other)
chain: AEKSLDSDSSGEDYELWTQGCPFLVAENRTGFGTTVSCQHNCNGAIEKVPEGEPCYTIGEDGLGRMKLNLPYNCSLGECSGGVCVPNGRSDVCFKRTWEENNKAMA
B4: P1182_AMBMA (other)
chain: EPKDDNDYGGGCPFVVLGNGTHAKPAGCSHLCNGAPETLDNIECYNVTEEVAKRMTPGIPYACWLGWCNKGECKRGNRTEVCYRGSEEE
B5: P1181_AMBMA (other)
chain: EEREDDNDYGGGCPFVVLGNGTHAKPAGCSHLCNGAPETLDNIECYNVTEEVAKRMTPDIPYTCWLGWCSKGECKRDNRTEVCYRGSERE

Chain of CCL2_HUMAN (P13500 24-99): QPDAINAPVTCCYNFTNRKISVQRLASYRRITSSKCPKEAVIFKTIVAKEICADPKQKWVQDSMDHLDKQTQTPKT

One assay has as its target T1, CCL22_HUMAN. The experiment in a line: BLI. Background: Biolayer interferometry detects binding as a change in optical thickness at a sensor tip.
B1 yielded a Kd of 27 nM.
As for B2, the Kd was 16.8 nM.

The target in another assay is CCL3L1_HUMAN. Kind of assay: BLI.
With B3, the equilibrium dissociation constant (Kd) was determined as 0.524 nM.
On the same count and under the same terms, the value for B4 was 63.4 nM.
Same read-out and setting: with B1 the figure was 14.7 nM; with B2, 13.1 nM.
On the same count and under the same terms, the value for B5 was 100 nM.

For another assay, the target named is CCL4L1_HUMAN. Kind of assay: BLI.
B3: the Kd is 4.72 nM.
B1 showed a dissociation constant (Kd) of 8.87 nM.
Still for that read-out and setting: the value for B2 was 23.2 nM.
Same read-out and setting: with B5 the figure was 13.5 nM.

In another assay the target is CCL7_HUMAN. Kind of assay: BLI.
Turning to B3, binding was characterised by a dissociation constant (Kd) of 2.15 nM.
Same read-out and setting: the value for B4 was 29.2 nM; that for B1 was 90 nM; that for B2 was 41.2 nM.
In turn, B5 showed a Kd of 35 nM.

The target of the next assay is CCL14_HUMAN. The experiment in a line: BLI.
On to B3, for which the affinity, expressed as Kd, was 4.13 nM.
The same measure, in the same setting: with B1 the figure was 28.2 nM; with B2, 49.1 nM; with B5, 47 nM.

In another assay the target is CCL13_HUMAN. The experiment in a line: BLI.
Molecule B3 yielded a Kd of 2.56 nM.
B4 gave a Kd of 50 nM.
As for B1, the Kd stood at 13.1 nM.
The same measure, in the same setting: the value for B2 was 22.9 nM; that for B5 was 19 nM.

Another assay deals with CCL16_HUMAN. Kind of assay: BLI.
In the case of B3, binding was characterised by a dissociation constant (Kd) of 14.1 nM.
With B1, binding was put at a Kd of 6.67 nM.
The same measure, in the same setting: the value for B2 was 11 nM.

A further assay deals with T2, CCL1_HUMAN. The experiment in a line: BLI.
As for B3, the dissociation constant Kd is 53.4 nM.
Still for that read-out and setting: with B4 the figure was 74 nM; with B1, 160 nM.
B2 displayed a Kd of 70.5 nM.

In the next assay the target is T3, CCL5_HUMAN. The experiment in a line: BLI.
B3: the affinity, expressed as Kd, was 7.67 nM.

The target in the next assay is T4, CCL3_HUMAN. Kind of assay: BLI.
B3: the Kd was 0.363 nM.
The same measure, in the same setting: the value for B4 was 9.46 nM.
The same measure, in the same setting: the value for B1 was 14.5 nM; that for B2 was 7.97 nM; that for B5 was 3.29 nM.

A further assay addresses CCL2_HUMAN (human, UniProt P13500 24-99). The experiment in a line: BLI.
B3: the dissociation constant (Kd) worked out at 0.001 nM.
The same measure, in the same setting: with B4 the figure was 5.39 nM.
Same read-out and setting: the value for B1 was 83 nM; that for B2 was 93 nM.
On the same count and under the same terms, the value for B5 was 2.21 nM.

A further assay addresses T5, CCL8_HUMAN. Kind of assay: BLI.
In turn, B3 came in with an equilibrium dissociation constant (Kd) of 2.85 nM.
Still for that read-out and setting: the value for B4 was 28.2 nM.
Same read-out and setting: the value for B1 was 1.29 nM; that for B2 was 2.58 nM.
In turn, B5 showed a Kd of 119 nM. Compared with the last molecule, the Kd is about 46-fold higher.

A further assay addresses T6, CCL18_HUMAN. Kind of assay: BLI.
The molecule B3 gave a Kd of 16.6 nM.
The same measure, in the same setting: with B1 the figure was 16 nM; with B2, 0.683 nM.
In turn, B5 came in with a Kd of 10 nM. This Kd lies about 15-fold higher than the previous one.

In the next assay the target is T7, CCL4. The experiment in a line: BLI.
The molecule B3 returned a Kd of 13.6 nM.
The same measure, in the same setting: with B4 the figure was 92.4 nM; with B1, 26.6 nM; with B2, 30.2 nM.
Take B5: the affinity, expressed as Kd, was 53 nM.

In another assay the target is T8, CCL17_HUMAN. Kind of assay: BLI.
As for B4, the Kd stood at 33.4 nM. This lies in the double-digit nanomolar range.
The same measure, in the same setting: the value for B1 was 70 nM; that for B2 was 70.6 nM.

In another assay the target is CCL11_HUMAN (human, UniProt P51671 24-97). Kind of assay: BLI.
Chain of CCL11_HUMAN (P51671 24-97): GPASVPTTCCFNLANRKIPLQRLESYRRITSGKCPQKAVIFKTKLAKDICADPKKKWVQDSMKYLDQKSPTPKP
B3 came in with a Kd of 1.4 nM.
With B4, the dissociation constant (Kd) is 56 nM.
On the same count and under the same terms, the value for B1 was 8.7 nM; that for B2 was 17 nM; that for B5 was 19.5 nM.
